Experimental findings from PMC10786891, “Massively parallel profiling of RNA-targeting CRISPR-Cas13d” are described below.

Positions count from the first letter of the chain named. In names and notes the source's numbering stands.

The chains are these.
T1: EsCas13d, nuclease-dead (Eubacterium siraeum, UniProt B0MS50, R295A;H300A;R849A;H854A)
T1 sequence: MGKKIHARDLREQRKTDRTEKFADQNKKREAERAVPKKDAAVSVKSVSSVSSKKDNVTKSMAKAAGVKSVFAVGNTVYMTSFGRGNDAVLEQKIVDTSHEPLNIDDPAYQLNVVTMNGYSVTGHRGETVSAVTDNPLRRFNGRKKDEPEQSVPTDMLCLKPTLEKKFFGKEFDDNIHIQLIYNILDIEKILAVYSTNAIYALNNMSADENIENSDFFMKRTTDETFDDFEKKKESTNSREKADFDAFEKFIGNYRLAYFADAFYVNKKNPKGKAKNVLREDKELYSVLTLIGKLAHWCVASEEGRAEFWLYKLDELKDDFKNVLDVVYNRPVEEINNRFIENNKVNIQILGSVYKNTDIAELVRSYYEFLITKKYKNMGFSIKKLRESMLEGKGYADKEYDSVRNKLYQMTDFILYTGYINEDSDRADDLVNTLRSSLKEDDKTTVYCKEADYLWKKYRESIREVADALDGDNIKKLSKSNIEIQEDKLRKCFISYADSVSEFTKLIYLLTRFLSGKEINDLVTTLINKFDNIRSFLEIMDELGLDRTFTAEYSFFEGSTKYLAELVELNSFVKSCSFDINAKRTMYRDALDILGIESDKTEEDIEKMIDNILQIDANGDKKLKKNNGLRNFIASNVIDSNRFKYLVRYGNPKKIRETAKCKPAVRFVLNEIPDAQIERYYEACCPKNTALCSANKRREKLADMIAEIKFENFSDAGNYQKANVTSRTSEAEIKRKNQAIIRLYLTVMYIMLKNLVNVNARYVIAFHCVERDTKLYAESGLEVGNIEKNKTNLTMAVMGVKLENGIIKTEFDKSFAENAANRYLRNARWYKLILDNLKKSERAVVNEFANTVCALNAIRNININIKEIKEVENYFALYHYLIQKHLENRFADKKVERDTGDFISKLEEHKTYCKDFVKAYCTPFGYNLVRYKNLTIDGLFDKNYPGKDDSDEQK

B1: target 1 insA 3' of 21 (mixed)
RNA 1: CACCCGUGCAAAAAUGCAGGGGUCUAAAACUGAGCGGAUAACCUCUCUAUGG
RNA 2: GGGAAUGGAUCCACAUCUACGAAUUCGUACCAAUAGAGAGGUUAUCCGCUCACCGAGAUCGGAAGAGCACACGU
B2: target 1 G5U,G17A (mixed)
RNA 1: B1 RNA 1
RNA 2: GGGAAUGGAUCCACAUCUACGAAUUCGUACCAUAAAGAGGUUAUCCUCUCACCGAGAUCGGAAGAGCACACGU
B3: target 1 insG 3' of 4,insG 3' of 1 (mixed)
RNA 1: B1 RNA 1
RNA 2: GGGAAUGGAUCCACAUCUACGAAUUCGUACCAUAGAGAGGUUAUCCGCGUCAGCCGAGAUCGGAAGAGCACACGU
B4: target 1 insA 3' of 10,insA 3' of 3 (mixed)
RNA 1: B1 RNA 1
RNA 2: B3 RNA 2 with U44A, C45U, G47C, C48G, G49C, C51A, A52C, G53A
B5: target 2 MT 5'PFS UUC 3'PFS AAC (mixed)
RNA 1: CACCCGUGCAAAAUUGCAGGGGUCUAAAACCUUCUCCAAAUUGUUUCAUCCU
RNA 2: GGGAAUGGAUCCACAUCUACGAAUUCUUCAGGAUGAAACAAUUUGGAGAAGAACAGAUCGGAAGAGCACACGU
B6: target 2 MT 5'PFS CAA 3'PFS UCC (mixed)
RNA 1: B5 RNA 1
RNA 2: B5 RNA 2 with U27C, U28A, C29A, A52U, A53C
B7: target 2 MT 5'PFS UAA 3'PFS UGC (mixed)
RNA 1: B5 RNA 1
RNA 2: B5 RNA 2 with U28A, C29A, A52U, A53G
B8: target 2 MT 5'PFS CUG 3'PFS CGC (mixed)
RNA 1: B5 RNA 1
RNA 2: B5 RNA 2 with U27C, C29G, A52C, A53G
B9: target 2 MT 5'PFS GGA 3'PFS CCA (mixed)
RNA 1: B5 RNA 1
RNA 2: B5 RNA 2 with U27G, U28G, C29A, A52C, A53C, C54A
B10: target 2 MT 5'PFS GGA 3'PFS CCG (mixed)
RNA 1: B5 RNA 1
RNA 2: B5 RNA 2 with U27G, U28G, C29A, A52C, A53C, C54G
B11: target 2 MT 5'PFS ACA 3'PFS AAU (mixed)
RNA 1: B5 RNA 1
RNA 2: B5 RNA 2 with U27A, U28C, C29A, C54U
B12: target 2 MT 5'PFS GGA 3'PFS UCU (mixed)
RNA 1: B5 RNA 1
RNA 2: B5 RNA 2 with U27G, U28G, C29A, A52U, A53C, C54U
B13: target 2 MT 5'PFS CAC 3'PFS CUU (mixed)
RNA 1: B5 RNA 1
RNA 2: B5 RNA 2 with U27C, U28A, A52C, A53U, C54U
B14: target 2 MT 5'PFS AGU 3'PFS AGU (mixed)
RNA 1: B5 RNA 1
RNA 2: B5 RNA 2 with U27A, U28G, C29U, A53G, C54U
B15: target 2 MT 5'PFS UUG 3'PFS CAU (mixed)
RNA 1: B5 RNA 1
RNA 2: B5 RNA 2 with C29G, A52C, C54U
B16: target 2 MT 5'PFS GGU 3'PFS CGC (mixed)
RNA 1: B5 RNA 1
RNA 2: B5 RNA 2 with U27G, U28G, C29U, A52C, A53G
B17: target 2 MT 5'PFS ACA 3'PFS AAA (mixed)
RNA 1: B5 RNA 1
RNA 2: B5 RNA 2 with U27A, U28C, C29A, C54A
B18: target 2 MT 5'PFS UAA 3'PFS UGU (mixed)
RNA 1: B5 RNA 1
RNA 2: B5 RNA 2 with U28A, C29A, A52U, A53G, C54U
B19: target 2 MT 5'PFS GUC 3'PFS UGA (mixed)
RNA 1: B5 RNA 1
RNA 2: B5 RNA 2 with U27G, A52U, A53G, C54A
B20: target 2 MT 5'PFS CUG 3'PFS AUA (mixed)
RNA 1: B5 RNA 1
RNA 2: B5 RNA 2 with U27C, C29G, A53U, C54A
B21: target 2 MT 5'PFS CUG 3'PFS AUG (mixed)
RNA 1: B5 RNA 1
RNA 2: B5 RNA 2 with U27C, C29G, A53U, C54G
B22: target 2 MT 5'PFS GGA 3'PFS UCG (mixed)
RNA 1: B5 RNA 1
RNA 2: B5 RNA 2 with U27G, U28G, C29A, A52U, A53C, C54G
B23: target 2 MT 5'PFS GGA 3'PFS UCA (mixed)
RNA 1: B5 RNA 1
RNA 2: B5 RNA 2 with U27G, U28G, C29A, A52U, A53C, C54A
B24: target 2 MT 5'PFS CUG 3'PFS AUU (mixed)
RNA 1: B5 RNA 1
RNA 2: B5 RNA 2 with U27C, C29G, A53U, C54U
B25: target 2 MT 5'PFS CAC 3'PFS CUC (mixed)
RNA 1: B5 RNA 1
RNA 2: B5 RNA 2 with U27C, U28A, A52C, A53U
B26: target 2 MT 5'PFS GGU 3'PFS CGA (mixed)
RNA 1: B5 RNA 1
RNA 2: B5 RNA 2 with U27G, U28G, C29U, A52C, A53G, C54A
B27: target 2 MT 5'PFS CUA 3'PFS UAG (mixed)
RNA 1: B5 RNA 1
RNA 2: B5 RNA 2 with U27C, C29A, A52U, C54G
B28: target 2 MT 5'PFS ACA 3'PFS AAG (mixed)
RNA 1: B5 RNA 1
RNA 2: B5 RNA 2 with U27A, U28C, C29A, C54G
B29: target 2 MT 5'PFS CAG 3'PFS CCG (mixed)
RNA 1: B5 RNA 1
RNA 2: B5 RNA 2 with U27C, U28A, C29G, A52C, A53C, C54G
B30: target 2 MT 5'PFS GGA 3'PFS UCC (mixed)
RNA 1: B5 RNA 1
RNA 2: B5 RNA 2 with U27G, U28G, C29A, A52U, A53C

The target in the data set is T1, EsCas13d, nuclease-dead. In words: crRNA (strand 1, pre-loaded); Mg2+; 40 mM Tris-HCl pH 7.5, 150 mM NaCl, 6 mM MgCl2, 1 mM DTT, 0.1% Tween-20, 0.2 mg/ml BSA; 25 C; 10 min per concentration, then washed. The settings on record: tags: His6-TwinStrep-SUMO cleaved; N-terminal SNAP kept (SNAP-Surface 488); label: 3' end held by stalled T7 RNA polymerase.
One may read the Kd as the equilibrium constant for the complex coming apart. The low end stands for tighter binding, the high end for weaker binding. With B1, the equilibrium dissociation constant (Kd) is 13.8 ± 1.2 nM.

B2 gave a dissociation constant (Kd) of 91 ± 15 nM.

With B3, binding was put at a Kd of 6 ± 0.4 nM. Against the preceding molecule, the Kd is about 15-fold lower.

B4 registered a Kd of 8.56 ± 0.34 nM.

In the case of B5, the Kd was determined as 15 ± 4 nM.

In turn, B6 showed a Kd of 7.3 ± 0.6 nM.

As for B7, the dissociation constant (Kd) turned out to be 5.6 ± 1.2 nM.

For the molecule B8, the Kd was determined as 4 ± 0.4 nM.

For the molecule B9, binding was characterised by a dissociation constant (Kd) of 27 ± 5 nM.

The molecule B10 displayed an equilibrium dissociation constant (Kd) of 12.3 ± 1.2 nM.

The molecule B11 showed a dissociation constant (Kd) of 5.7 ± 1.3 nM.

Molecule B12 gave a dissociation constant (Kd) of 22 ± 4 nM.

In the case of B13, the Kd is 2.31 ± 0.3 nM.

B14: the Kd amounted to 6.8 ± 0.7 nM.

B15: the Kd amounted to 9.1 ± 1.2 nM.

Molecule B16 showed a dissociation constant Kd of 15.1 ± 1.4 nM. Against the preceding molecule, the Kd is about 1.7-fold higher.

For the molecule B17, the Kd was 8.3 ± 1.4 nM.

Regarding B18, the Kd was 9.5 ± 1.5 nM.

The molecule B19 returned a dissociation constant Kd of 17.4 ± 2.6 nM.

Take B20: the Kd was found to be 2.63 ± 0.24 nM. Compared with the last molecule, the Kd is about 6.6-fold lower.

For the molecule B21, the Kd turned out to be 3.17 ± 0.32 nM.

The molecule B22 registered a Kd of 17.4 ± 2.7 nM.

B23 came in with an equilibrium dissociation constant (Kd) of 10.4 ± 1.4 nM. This Kd is about 1.7-fold lower than that of the molecule before.

With B24, binding was put at a Kd of 2.57 ± 0.22 nM. Against the preceding molecule, the Kd is about 4-fold lower.

B25 displayed a Kd of 2.9 ± 1 nM.

B26 yielded a Kd of 15.4 ± 2.1 nM.

On to B27, for which the Kd turned out to be 1.9 ± 0.4 nM.

Regarding B28, the Kd worked out at 10 ± 5 nM. Against the preceding molecule, the Kd is about 5.3-fold higher.

B29 yielded a Kd of 11.9 ± 3 nM.

Molecule B30 showed a Kd of 24.2 ± 2.8 nM.
